Source: patent US20230050380A1 (CHIOME BIOSCIENCE, published 2023)

B1: mh12A041HCori/LCoriA (antibody, human IgG1, kappa, V domains shown)
VH: EVQLQESGPGILQPSQTLSLTCSFSGFSLSTSGMGVSWIRQPSGKGLEWLAHIYWDDDKRYNPSLKSRLTISKDTSSNQVFLKITSVDTADTATYYCARSGSYYGSSLDCWGQGTTLTVSS
VL: DVLMTQTPLSLPVSLGDQASISCRSSQSIVYSNGNTYLEWYLQKPGQSPKLLIYKVSNRFSGVPDRFSGSGSGTDFTLKISRVEAEDLGVYYCFQGSHVPWTFGGGTKLEIRR
notes: mouse-human chimeric antibody, human IgG1/kappa constant regions
B2: mh12A041HCori/LCv2 (antibody, human IgG1, kappa, V domains shown)
VH: EVQLQESGPGILQPSQTLSLTCSFSGFSLSTSGMGVSWIRQPSGKGLEWLAHIYWDDDKRYNPSLKSRLTISKDTSSNQVFLKITSVDTADTATYYCARSGSYYGSSLDCWGQGTTLTVSS
VL: DVLMTQTPLSLPVSLGDQASISCRSSQSIVHSNANTYLEWYLQKPGQSPKLLIYKVSNRFSGVPDRFSGSGSGTDFTLKISRVEAEDLGVYYCFQGSHVPWTFGGGTKLEIRR
notes: as for B1
B3: mh12A041HCoriA/LCoriB (antibody, human IgG1, kappa, V domains shown)
VH: EVQLQESGPGILQPSQTLSLTCSFSGFSLSTFGMGVSWIRQPSGKGLEWLAHIYWDDDKRYNPSLKSRLTISKDTSSNQVFLKITSVDTADTATYYCARSGSYYGSSLDCWGQGTTLTVSS
VL: DVLMTQTPLSLPVSLGDQASISCRSSQNIVHSDGNTYLEWYLQKPGQSPKLLIYKVSNRFSGVPDRFSGSGSGTDFTLKISRVEAEDLGVYYCFQGSHVPWTFGGGTKLEIRR
notes: as for B1
B4: mh12A041HCv1/LCv1 (antibody, human IgG1, kappa, V domains shown)
VH: EVQLQESGPGILQPSQTLSLTCSFSGFSLSTSGMGVSWIRQPSGKGLEWLAHIYWDDDKRYNPSLKSRLTISKDTSSNQVFLKITSVDTADTATYYCARSGSYYGSSLDSWGQGTTLTVSS
VL: DVLMTQTPLSLPVSLGDQASISCRSSQSIVHSSGNTYLEWYLQKPGQSPKLLIYKVSNRFSGVPDRFSGSGSGTDFTLKISRVEAEDLGVYYCFQGSHVPWTFGGGTKLEIRR
notes: as for B1
B5: mh12A041HCoriA/LCoriA (antibody, human IgG1, kappa, V domains shown)
VH: EVQLQESGPGILQPSQTLSLTCSFSGFSLSTFGMGVSWIRQPSGKGLEWLAHIYWDDDKRYNPSLKSRLTISKDTSSNQVFLKITSVDTADTATYYCARSGSYYGSSLDCWGQGTTLTVSS
VL: DVLMTQTPLSLPVSLGDQASISCRSSQSIVYSNGNTYLEWYLQKPGQSPKLLIYKVSNRFSGVPDRFSGSGSGTDFTLKISRVEAEDLGVYYCFQGSHVPWTFGGGTKLEIRR
notes: as for B1
B6: mh12A041HCori/LCv1 (antibody, human IgG1, kappa, V domains shown)
VH: EVQLQESGPGILQPSQTLSLTCSFSGFSLSTSGMGVSWIRQPSGKGLEWLAHIYWDDDKRYNPSLKSRLTISKDTSSNQVFLKITSVDTADTATYYCARSGSYYGSSLDCWGQGTTLTVSS
VL: DVLMTQTPLSLPVSLGDQASISCRSSQSIVHSSGNTYLEWYLQKPGQSPKLLIYKVSNRFSGVPDRFSGSGSGTDFTLKISRVEAEDLGVYYCFQGSHVPWTFGGGTKLEIRR
notes: as for B1
B7: mh12A041HCv1/LCori (antibody, human IgG1, kappa, V domains shown)
VH: EVQLQESGPGILQPSQTLSLTCSFSGFSLSTSGMGVSWIRQPSGKGLEWLAHIYWDDDKRYNPSLKSRLTISKDTSSNQVFLKITSVDTADTATYYCARSGSYYGSSLDSWGQGTTLTVSS
VL: DVLMTQTPLSLPVSLGDQASISCRSSQSIVHSNGNTYLEWYLQKPGQSPKLLIYKVSNRFSGVPDRFSGSGSGTDFTLKISRVEAEDLGVYYCFQGSHVPWTFGGGTKLEIKR
notes: as for B1
B8: mh12A041HCori/LCoriB (antibody, human IgG1, kappa, V domains shown)
VH: EVQLQESGPGILQPSQTLSLTCSFSGFSLSTSGMGVSWIRQPSGKGLEWLAHIYWDDDKRYNPSLKSRLTISKDTSSNQVFLKITSVDTADTATYYCARSGSYYGSSLDCWGQGTTLTVSS
VL: DVLMTQTPLSLPVSLGDQASISCRSSQNIVHSDGNTYLEWYLQKPGQSPKLLIYKVSNRFSGVPDRFSGSGSGTDFTLKISRVEAEDLGVYYCFQGSHVPWTFGGGTKLEIRR
notes: as for B1
B9: mh12A041HCoriA/LCori (antibody, human IgG1, kappa, V domains shown)
VH: EVQLQESGPGILQPSQTLSLTCSFSGFSLSTFGMGVSWIRQPSGKGLEWLAHIYWDDDKRYNPSLKSRLTISKDTSSNQVFLKITSVDTADTATYYCARSGSYYGSSLDCWGQGTTLTVSS
VL: DVLMTQTPLSLPVSLGDQASISCRSSQSIVHSNGNTYLEWYLQKPGQSPKLLIYKVSNRFSGVPDRFSGSGSGTDFTLKISRVEAEDLGVYYCFQGSHVPWTFGGGTKLEIKR
notes: as for B1
B10: mh12A041HCv1/LCv2 (antibody, human IgG1, kappa, V domains shown)
VH: EVQLQESGPGILQPSQTLSLTCSFSGFSLSTSGMGVSWIRQPSGKGLEWLAHIYWDDDKRYNPSLKSRLTISKDTSSNQVFLKITSVDTADTATYYCARSGSYYGSSLDSWGQGTTLTVSS
VL: DVLMTQTPLSLPVSLGDQASISCRSSQSIVHSNANTYLEWYLQKPGQSPKLLIYKVSNRFSGVPDRFSGSGSGTDFTLKISRVEAEDLGVYYCFQGSHVPWTFGGGTKLEIRR
notes: as for B1
B11: mh14A025HCv1/LCori (antibody, human IgG1, kappa, V domains shown)
VH: EVQLQESGAELVRPGALVKLSCKASGFNIKDYYMHWVKQRPEQGLEWIGWIDPESGNTIYDPKFQGKASITADTSSNTAYLQLSSLTSEDTAVYYCGGLLYAMDYWGQGTSVTVSS
VL: DIQMTQTTSSLSASLGDRVTISCRASQDISNYLNWYQQKPDGTVKLLIYFTSRLHSGVPSRFSGSGSGTDYSLTISNLEQEDIATYFCQQGNTLPRTFGGGTKLEIRR
notes: as for B1
B12: mh14A025HCv8/LCori (antibody, human IgG1, kappa, V domains shown)
VH: EVQLQESGAELVRPGALVKLSCKASGFNIKDYYMHWVKQRPEQGLEWIGWIDPEFGNTIYDPKFQGKASITADTSSNTAYLQLSSLTSEDTAVYYCGGLLYAMDYWGQGTSVTVSS
VL: DIQMTQTTSSLSASLGDRVTISCRASQDISNYLNWYQQKPDGTVKLLIYFTSRLHSGVPSRFSGSGSGTDYSLTISNLEQEDIATYFCQQGNTLPRTFGGGTKLEIRR
notes: as for B1
B13: mh14A025HCv2/LCori (antibody, human IgG1, kappa, V domains shown)
VH: EVQLQESGAELVRPGALVKLSCKASGFNIKDYYMHWVKQRPEQGLEWIGWIDPENANTIYDPKFQGKASITADTSSNTAYLQLSSLTSEDTAVYYCGGLLYAMDYWGQGTSVTVSS
VL: DIQMTQTTSSLSASLGDRVTISCRASQDISNYLNWYQQKPDGTVKLLIYFTSRLHSGVPSRFSGSGSGTDYSLTISNLEQEDIATYFCQQGNTLPRTFGGGTKLEIRR
notes: as for B1
B14: mh14A025HCv15/LCori (antibody, human IgG1, kappa, V domains shown)
VH: EVQLQESGAELVRPGALVKLSCKASGFNIKDYYMHWVKQRPEQGLEWIGWIDPENLNTIYDPKFQGKASITADTSSNTAYLQLSSLTSEDTAVYYCGGLLYAMDYWGQGTSVTVSS
VL: DIQMTQTTSSLSASLGDRVTISCRASQDISNYLNWYQQKPDGTVKLLIYFTSRLHSGVPSRFSGSGSGTDYSLTISNLEQEDIATYFCQQGNTLPRTFGGGTKLEIRR
notes: as for B1
B15: mh14A025HCv7/LCori (antibody, human IgG1, kappa, V domains shown)
VH: EVQLQESGAELVRPGALVKLSCKASGFNIKDYYMHWVKQRPEQGLEWIGWIDPENENTIYDPKFQGKASITADTSSNTAYLQLSSLTSEDTAVYYCGGLLYAMDYWGQGTSVTVSS
VL: DIQMTQTTSSLSASLGDRVTISCRASQDISNYLNWYQQKPDGTVKLLIYFTSRLHSGVPSRFSGSGSGTDYSLTISNLEQEDIATYFCQQGNTLPRTFGGGTKLEIRR
notes: as for B1
B16: mh14A025HCv21/LCori (antibody, human IgG1, kappa, V domains shown)
VH: EVQLQESGAELVRPGALVKLSCKASGFNIKDYYMHWVKQRPEQGLEWIGWIDPETGNTIYDPKFQGKASITADTSSNTAYLQLSSLTSEDTAVYYCGGLLYAMDYWGQGTSVTVSS
VL: DIQMTQTTSSLSASLGDRVTISCRASQDISNYLNWYQQKPDGTVKLLIYFTSRLHSGVPSRFSGSGSGTDYSLTISNLEQEDIATYFCQQGNTLPRTFGGGTKLEIRR
notes: as for B1
B17: mh14A025HCv19/LCori (antibody, human IgG1, kappa, V domains shown)
VH: EVQLQESGAELVRPGALVKLSCKASGFNIKDYYMHWVKQRPEQGLEWIGWIDPERGNTIYDPKFQGKASITADTSSNTAYLQLSSLTSEDTAVYYCGGLLYAMDYWGQGTSVTVSS
VL: DIQMTQTTSSLSASLGDRVTISCRASQDISNYLNWYQQKPDGTVKLLIYFTSRLHSGVPSRFSGSGSGTDYSLTISNLEQEDIATYFCQQGNTLPRTFGGGTKLEIRR
notes: as for B1
B18: mh14A025HCv17/LCori (antibody, human IgG1, kappa, V domains shown)
VH: EVQLQESGAELVRPGALVKLSCKASGFNIKDYYMHWVKQRPEQGLEWIGWIDPENMNTIYDPKFQGKASITADTSSNTAYLQLSSLTSEDTAVYYCGGLLYAMDYWGQGTSVTVSS
VL: DIQMTQTTSSLSASLGDRVTISCRASQDISNYLNWYQQKPDGTVKLLIYFTSRLHSGVPSRFSGSGSGTDYSLTISNLEQEDIATYFCQQGNTLPRTFGGGTKLEIRR
notes: as for B1
B19: mh14A025HCv5/LCori (antibody, human IgG1, kappa, V domains shown)
VH: EVQLQESGAELVRPGALVKLSCKASGFNIKDYYMHWVKQRPEQGLEWIGWIDPENDNTIYDPKFQGKASITADTSSNTAYLQLSSLTSEDTAVYYCGGLLYAMDYWGQGTSVTVSS
VL: DIQMTQTTSSLSASLGDRVTISCRASQDISNYLNWYQQKPDGTVKLLIYFTSRLHSGVPSRFSGSGSGTDYSLTISNLEQEDIATYFCQQGNTLPRTFGGGTKLEIRR
notes: as for B1

These binders were tested against T1, full-length hCDCP1 with N-terminal c-Myc tag (expression vector GS01), on Ba/F3-hCDCP1 cells or … (human, UniProt Q9H5V8 30-836) (assay: flow cytometry on Ba/F3-hCDCP1 cells).
T1 construct: also called human CDCP1; hCDCP1 forced expression cells
T1 sequence: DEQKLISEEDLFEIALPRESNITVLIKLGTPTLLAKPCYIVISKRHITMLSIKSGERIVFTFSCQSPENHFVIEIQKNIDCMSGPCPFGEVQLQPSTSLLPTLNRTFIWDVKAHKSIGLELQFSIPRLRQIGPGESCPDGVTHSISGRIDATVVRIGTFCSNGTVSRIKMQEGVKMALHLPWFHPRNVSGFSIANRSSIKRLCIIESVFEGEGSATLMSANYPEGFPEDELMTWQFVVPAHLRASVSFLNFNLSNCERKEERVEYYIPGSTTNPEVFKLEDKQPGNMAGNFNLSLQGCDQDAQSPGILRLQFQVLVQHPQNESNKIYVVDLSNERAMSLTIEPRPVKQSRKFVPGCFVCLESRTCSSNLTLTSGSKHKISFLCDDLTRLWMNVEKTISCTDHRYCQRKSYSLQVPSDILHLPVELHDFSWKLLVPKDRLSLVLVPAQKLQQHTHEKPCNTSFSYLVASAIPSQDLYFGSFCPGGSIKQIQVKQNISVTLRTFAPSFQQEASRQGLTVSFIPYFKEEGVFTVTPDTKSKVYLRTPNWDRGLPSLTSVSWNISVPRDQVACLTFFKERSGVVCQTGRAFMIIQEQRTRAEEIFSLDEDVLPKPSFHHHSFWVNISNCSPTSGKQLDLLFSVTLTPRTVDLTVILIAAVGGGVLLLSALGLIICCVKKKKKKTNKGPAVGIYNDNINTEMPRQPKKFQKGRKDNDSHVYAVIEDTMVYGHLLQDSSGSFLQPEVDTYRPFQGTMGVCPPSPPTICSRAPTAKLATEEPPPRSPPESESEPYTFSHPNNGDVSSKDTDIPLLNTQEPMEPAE
B1: binds. B2: binds. B3: binds. B4: binds. B5: binds. B6: binds. B7: binds. B8: binds. B9: binds. B10: binds. B11: binds. B12: binds. B13: binds. B14: binds. B15: binds. B16: binds. B17: binds. B18: binds. B19: binds.
